Assay results as given in US20250186541A1, “DLL3 TARGETING PEPTIDES AND CONSTRUCTS THEREOF” (MARIANA ONCOLOGY INC., priority 2023, published 2025).
Bridge positions count the residues as written; N and C are the ends. Square brackets hold non-standard residues; d marks the D form. * marks the point of attachment. DOTA = O=C(O)CN1CCN(CC(=O)O)CCN(CC(=O)*)CCN(CC(=O)O)CC1; Phe(4-CF3) = N[C@@H](Cc1ccc(C(F)(F)F)cc1)C(=O)O; Trp(5-F) = N[C@@H](Cc1c[nH]c2ccc(F)cc12)C(=O)O

How the values were obtained:
Biotinylated human DLL3 [1] = molecular target: T1, Biotinylated human DLL3 (human, UniProt Q9NYJ7 27-492, biotinylated (site not stated)); experiment: SPR, biotin-hDLL3 on SA chip; Cpd 59, a separate compound
T1 construct: also called Delta-like ligand 3; Delta Like Canonical Notch Ligand 3
T1 sequence (looked up): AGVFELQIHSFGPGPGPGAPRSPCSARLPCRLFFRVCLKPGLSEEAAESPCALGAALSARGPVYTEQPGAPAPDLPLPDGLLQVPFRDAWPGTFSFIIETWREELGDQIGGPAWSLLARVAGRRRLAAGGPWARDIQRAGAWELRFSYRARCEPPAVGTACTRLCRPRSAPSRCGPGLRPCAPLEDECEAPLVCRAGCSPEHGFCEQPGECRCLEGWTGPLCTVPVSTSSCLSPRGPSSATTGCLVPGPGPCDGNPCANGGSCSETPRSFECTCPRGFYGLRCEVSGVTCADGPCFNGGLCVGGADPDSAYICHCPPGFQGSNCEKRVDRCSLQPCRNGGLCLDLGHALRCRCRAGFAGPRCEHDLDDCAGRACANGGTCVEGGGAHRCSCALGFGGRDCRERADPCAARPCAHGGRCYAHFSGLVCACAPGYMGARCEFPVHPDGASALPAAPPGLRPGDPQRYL

Biotinylated human DLL3 [2] = molecular target: T1, Biotinylated human DLL3; experiment: SPR, biotin-hDLL3 on SA chip; Cpd 58, a separate compound

B1: Cpd #59 (peptide)
peptide: Ac-MSDC[Phe(4-CF3)]LQWNCPFD[dK](DOTA)-NH2
modifications: disulfide 4-10
SMILES: CSCC[C@H](NC(C)=O)C(=O)N[C@@H](CO)C(=O)N[C@@H](CC(=O)O)C(=O)N[C@H]1CSSC[C@@H](C(=O)N2CCC[C@H]2C(=O)N[C@@H](Cc2ccccc2)C(=O)N[C@@H](CC(=O)O)C(=O)N[C@H](CCCCNC(=O)CN2CCN(CC(=O)O)CCN(CC(=O)O)CCN(CC(=O)O)CC2)C(N)=O)NC(=O)[C@H](CC(N)=O)NC(=O)[C@H](Cc2c[nH]c3ccccc23)NC(=O)[C@H](CCC(N)=O)NC(=O)[C@H](CC(C)C)NC(=O)[C@H](Cc2ccc(C(F)(F)F)cc2)NC1=O
B1 showed a Kd (Biotinylated human DLL3 [1]) of 149 nM.

In the case of Ac-MSDC[Trp(5-F)]LQWNCPFD[dK](DOTA)-NH2 (disulfide 4-10) [Cpd #58], the Kd (Biotinylated human DLL3 [2]) is reported as 42 nM.
